B1: HB-EGF: heparin-binding EGF-like growth factor (protein, UniProt Q99075 63-148, looked up)
Heparin-binding EGF-like …: DLQEADLDLLRVTLSSKPQALATPNKEEHGKRKKKGKGLGKKRDPCLRKYKDFCIHGECKYVKELRAPSCICHPGYHGERCHGLSL
B2: PDGF-BB: platelet derived growth factor, homodimer, subunit B (protein, UniProt P01127 82-190, looked up)
Platelet-derived growth …: SLGSLTIAEPAMIAECKTRTEVFEISRRLIDRTNANFLVWPPCVEVQRCSGCCNNRNVQCRPTQVQLRPVQVRKIEIVRKKPIFKKATVTLEDHLACKCETVAAARPVT
B3: BMP-3: member of the transforming growth factor beta family, known to enhance bone differentiation (protein, UniProt P12645 363-472, looked up)
Bone morphogenetic protein 3: QWIEPRNCARRYLKVDFADIGWSEWIISPKSFDAYYCSGACQFPMPKSLKPSNHATIQSIVRAVGVVPGIPEPCCVPEKMSSLSILFFDENKNVVLKVYPNMTVESCACR

Legend:
[1] = test system: MSCs; conditions: Tamama et al. 2010; cited from earlier work
[2] = test system: mesenchymal stem cells; experiment: Mesenchymal stem cell culture with growth factors with or without nicotinamide, cell counts; type: cell-based; conditions: growth factor 10 or 50 ng/ml with 5 mM NAM; three or four passages
Experimental: Isolation: Bone marrow derived and adipose tissue derived mesenchymal cells were isolated based on their plastic adherence potential in expansion medium containing: High glucose DMEM and 10% Fetal Bovine Serum (FBS, Hyclone, Logan, Utah, USA) supplemented with 0.05 mg/ml Gentamicin (Sigma) and 2 mM L-glutamine (Biological Industries, Israel). Cells were allowed to adhere for 3-4 days and non-adherent cells were washed out with medium changes. The medium was further exchanged with fresh medium every 3-4 days.
Maintenance and expansion: Once adherent cells reached approximately 80-90% confluency, they were detached with 0.25% trypsin-EDTA (Sigma), washed twice in DMEM and 10% Fetal Bovine Serum, with centrifugation, 400 g, 5 minutes, and re-plated at a 1:2 to 1:1000 dilution under the same culture conditions.
Measurement of number of cells in culture: Cell number was measured using Cedex Automated Cell Counter (Innovatis). The cells were diluted 1:2 in Trypan Blue (Sigma) and cell number was measured automatically under microscope.
Treatment of mesenchymal cultures with nicotinamide: Mesenchymal cultures were initiated as described above, and supplemented with nicotinamide 1-15 mM alone, or in combination with growth factors or growth factors alone, incubated at 37° C. in a humidified atmosphere of 5% CO2 in air. At each passage and at each medium exchange, the cultures were supplemented with mesenchymal medium, nicotinamide and growth factors.
Mesenchymal stem cells were selected and cultured in the presence of particular growth factors (basic fibroblast growth factor—bFGF, heparin binding epidermal growth factor—HB-EGF, fibroblast growth factor 4—FGF-4 and platelet derived growth factor, homodimer, subunit B, PDGF-BB) in the presence and absence of nicotinamide for three or four passages and the number and size of the cells was calculated.
Two concentrations (10 and 50 ng/ml) of each one of the following factors were examined.
In addition, the influence of the combination: 5 mM NAM+50 ng/ml FGF4+50 ng/ml PDGF-BB was examined in comparison to an individual supplement.

[3] = test system: mesenchymal stem cells; experiment: Percent of MSC (CD105+CD45−) analyzed by FACS; type: cell-based; conditions: FGF4 or PDGF-BB 50 ng/ml, NAM 5 mM
Experimental: Four different batches of MSC cultures were treated with FGF4 (50 ng/ml), NAM (5 mM) or a combination of FGF4+NAM. Percent of MSC (CD105+CD45−) was analyzed by FACS. FIGS. 7A-D are graphs illustrating that MSC cultures treated with PDGF-BB or a combination of PDGF-BB+NAM comprise a higher fraction of cells other than MSCs that contaminates the cultures as compared to MSC cultured in the absence of PDGF-BB. Four different batches of MSC cultures were treated with PDGF-BB (50 ng/ml), NAM (5 mM) or a combination of PDGF-BB+NAM. Percent of MSC (CD105+CD45−) was analyzed by FACS. Surface antigen analysis: At different time points the cells were detached with 0.25% trypsin-EDTA. […] The cells were then washed in the above buffer and analyzed using a FACScalibur® flow cytometer (Becton Dickinson). […] Emission of 10000 cells was measured using logarithmic amplification, and analyzed using the CellQuest software (Becton Dickinson). Cells stained with FITC- and PE-conjugated isotype control antibodies were used to determine background fluorescence.

[4] = test system: MSC; conditions: Stewart et al. 2010; cited from earlier work

Molecule	effect on the ability of nicotinamide to increase proliferation of mesenchymal stem cells [2]	also measured
EGF: Epidermal growth factor		increase in number of colony-forming units [1]: 25%
basic FGF: basic fibroblast growth factor (bFGF, FGF2)	negative effect	
B1	negative effect	
B2	inconsistent effect	Percent of MSC (CD105+CD45−) in culture [3]: contaminated with a higher fraction of cells other than MSCs
B3		increase in MSC proliferation [4]: threefold

— patent US20150064273A1, “Mesenchymal Stem Cells Conditioned Medium and Methods of Generating and Using the Same” (Gamida-Cell Ltd., priority 2012, published 2015)
